Reference: article PMC10492700

What was measured:
Assay in all cases: NMR
Conditions in all cases: 308 K; not stated (50 mM buffer); 50 mM MES, MOPS, HEPES, TRIS/HCl or CAPS; zinc-loaded, inhibitor-free, folded
[1] = molecular target: His119 (UniProt position 119, YAAELHLVHWN)
[2] = molecular target: His107 (UniProt position 107, GQGSEHTVDKK)
[3] = molecular target: His96 (UniProt position 96, IQFHFHWGSLD)

Carbonic anhydrase II (HCAII), wild type (Homo sapiens)
pKa [1]: <5.1 (not titrating in the studied pH range, 5.1-9.9)
pKa [2]: <5.1 (not titrating in the studied pH range, 5.1-9.9)
pKa [3]: <5.1 (not titrating in the studied pH range, 5.1-9.9)
